# Measurements: US7550427B2, “Poly-pegylated protease inhibitors” (Dyax Corp., priority 2003, dated 2009)
# Read-outs that look alike come from different tables or passages of the source. Where no end group is shown, it is not given here.
# How the values were obtained:
# [1] = Allometric extrapolation of clearance to humans; format: in vivo; settings: 70 Kg human
# Text: The data were plotted using a double 4-parameter exponential decay.
# [2] = Plasma clearance in mice of 125I-labeled protein; settings: for Clearance (%) alpha phase: fraction of label cleared through alpha phase; for Clearance (%) beta phase: fraction of label cleared through beta phase; for T1/2 alpha / T1/2 beta: plasma clearance, tail vein injection
# Experimental: (§1) The protein to be tested is labeled with iodine (^125I) using the iodogen method (Pierce). The reaction tube is rinsed with reaction buffer (25 mM Tris, 0.4 M NaCl, pH 7.5). The tube is emptied and then replaced with 0.1 ml of reaction buffer and 12 μl of carrier free iodine-126, about 1.6 mCi. After six minutes, the activated iodine is transferred to a tube containing the protein to be tested. After nine minutes, the reaction is terminated with 25 μl of saturated tyrosine solution. The reaction can be purified on a 5 ml D-salt polyacrylamide 6000 column in Tris/NaCl. HSA can be used to minimize sticking to the gel.
# (§2) A sufficient number of mice (about 36) are obtained. The weight of each animal is recorded. In the case of mice, the animals are injected in the tail vein with about 5 μg of the protein to be tested. Samples are recovered at each time point per animal, with four animals per time point, at approximately 0, 7, 15, 30, and 90 minutes, 4 hours, 8 hours, 16 hours, and 24 hours post injection. Samples (about 0.5 ml) are collected into anti-coagulant (0.02 ml EDTA). Cells are spun down and separated from plasma/serum. Samples can be analyzed by radiation counting and SEC peptide column on HPLC with inline radiation detection.
# (§3) Data can be fit to a bi-exponential (equation 2) or a tri-exponential (equation 3) decay curve describing “fast”, “slow”, and “slowest” phases of in vivo clearance: y=Ae^−αt+Be^−βt Equation 2 y=Ae^−αt+Be^−βt+Ce^−γt Equation 3 Where: • y=Amount of label remaining in plasma at time=t post-administration • A=Total label in “fast” clearance phase • B=Total label in “slow” clearance phase • C=Total label in “slowest” clearance phase • α=“Fast” clearance phase decay constant • β=“Slow” clearance phase decay constant • γ=“Slowest” clearance phase decay constant • t=Time post administration
# (§4) The α, β, and γ phase decay constants can be converted to half-lives for their respective phases as: α Phase Half-life=0.69 (1/α) β Phase Half-life=0.69 (1/β) γ Phase Half-life=0.69 (1/γ)
# (§5) In the case where the data are fit using the bi-exponential equation, the percentages of the total label cleared from in vivo circulation through the α and β phases are calculated as: % α Phase=[A/(A+B)]×100 % β Phase=[B/(A+B)]×100
# (§6) In the case where the data are fit using the tri-exponential equation, the percentages of the total label cleared from in vivo circulation through the α and β phases are calculated as: % α Phase=[A/(A+B+C)]×100 % β Phase=[B/(A+B+C)]×100 % γ Phase=[C/(A+B+C)]×100
# [3] = Plasma clearance in rabbit of 125I-labeled protein; settings: for Clearance (%) alpha phase: fraction cleared through alpha phase; for Clearance (%) beta phase: fraction cleared through beta phase; for Clearance (%) gamma phase: fraction cleared through gamma phase; for T1/2 alpha / T1/2 beta / T1/2 gamma: plasma clearance, ear vein injection
# Experimental: (§7) The following methods can be used to evaluate the pharmacokinetics (PK) of proteins such as poly-PEGylated proteins in animals, e.g., mice and rabbits. The protein to be tested is labeled with iodine (^125I) using the iodogen method (Pierce). The reaction tube is rinsed with reaction buffer (25 mM Tris, 0.4 M NaCl, pH 7.5). The tube is emptied and then replaced with 0.1 ml of reaction buffer and 12 μl of carrier free iodine-126, about 1.6 mCi. After six minutes, the activated iodine is transferred to a tube containing the protein to be tested. After nine minutes, the reaction is terminated with 25 μl of saturated tyrosine solution. The reaction can be purified on a 5 ml D-salt polyacrylamide 6000 column in Tris/NaCl. HSA can be used to minimize sticking to the gel.
# (§8) For rabbits, the material is injected into the ear vein. Samples can be collected at 0, 7, 15, 30, 90 minutes, 4, 8, 16, 24, 48, 72, 96, 120, and 144 hours post-injection. Samples can be collected and analyzed as for mice.
# as §3, §4, §5, §6
# [4] = Solubility upon dilution in Hepes buffer for the PEGylation reaction; format: physicochemical; settings: stock ~10 mg/ml diluted 1:1 with 0.2M Hepes, pH 7.8-8.5
# Experimental: • mPEG-SPA, MW 5,000 Da, NEKTAR Therapeutics, cat. no.: 2M4M0H01 (succinimidyl ester of methoxy-capped polyethylene glycol propionic acid) • DX-88 API, MW 7,054 Da, ˜10 mg/ml in PBS, pH 7.0 • DX-890 API, MW 6,231 Da, ˜10 mg/ml in 10 mM NaAc, pH 3.0 • DX-1000 API, MW 7,167 Da, ˜10 mg/ml in PBS, pH 7.0 • 0.2-0.3M Hepes, pH 7.8-8.5 • 1M Tris, pH8.0 • 1N HCl PEGylation Reaction I: • 1) Calculate the amount of PEG needed for reacting the Kunitz domain polypeptide at approximately 10:1 molar ratio of PEG:reactive group. For example, DX-890 has 5 total reactive groups, so a 50:1 molar ratio of PEG:DX-890 is used. Depending upon the Kunitz domain polypeptide and/or reaction conditions, a ratio of 25:1 to 50:1 is typically used. For example, for PEGylating 10 mg of DX-890 (MW 6,231 Da) at a 50:1 molar ratio of PEG:peptide, 401 mg of PEG (MW 5,000 Da) would be used. • 2) Just prior to reacting the Kunitz domain polypeptide with the PEG, dilute the required volume of Kunitz domain polypeptide stock 1:1 with 0.2M Hepes, pH 7.8-8.5 buffer. The peptide stock is typically ˜10.0 mg/ml. Therefore upon dilution, the concentration of the Kunitz domain polypeptide is ˜5.0 mg/ml in 0.1M Hepes, pH 7.8-8.5 buffer. […] Reaction times can be chosen to minimize precipitation. • 3) Immediately add the 1:1 diluted Kunitz domain polypeptide solution directly to the PEG powder and quickly dissolve the PEG by vortexing. Once completely dissolved, cap the tube, wrap in foil and allow to react while slowly rocking/tumbling for 2.5-3 hours at 2-8° C. to 25° C. • 4) Quench the reaction by adding 1/9th. volume of 1 M Tris, pH 8.0 for 30-60 minutes at 2-8° C. to 25° C. while slowly rocking/tumbling. • 5) Carefully and slowly adjust the pH of the quench reaction mixture to ˜ pH 7 with small additions of 1N HCl while mixing. • 6) The neutralized reaction can be stored at 2-8° C. or frozen at −20° C. to −80° C. until purification. The direct addition of the Kunitz domain polypeptide solution to PEG powder can help simplify the number of steps in the reaction process and reduce hydrolysis prior to reaction.
# [5] = Acute and subchronic 4-week studies of aerosolised DX-890 in cynomolgus monkeys; format: in vivo
# [6] = Clinical studies in healthy human volunteers, inhalation at 8 increasing doses; format: in vivo; settings: inhaled mass up to about 72 mg
# [7] = mouse, in vivo
# Experimental: as §1, §2, §3, §4, §5, §6
# [8] = rabbit, in vivo
# Experimental: as §7, §8, §3, §4, §5, §6
# [9] = 14-day daily nebulization in 12 healthy volunteers; format: in vivo, human
# Experimental: It is possible, for example, to deliver DX-890 to the lung by nebulization. DX-890 activity was detected in broncho-alveolar lavages of volunteer inhaling nebulized DX-890. 12 healthy volunteers received during 14 days a single daily dose of DX-890, by nebulization lasting 5 or 20 minutes, corresponding to estimated inhaled mass of 3.75 or 15 mg respectively. […] No clinical or biological abnormalities were observed.
# [10] = target: T1, hNE of sputum from cystic fibrosis children (Homo sapiens, UniProt P08246); settings: in vitro, ex vivo and in vivo pharmacological studies (Delacourt et al. 2002); cited from earlier work
# T1 construct: hNE of sputum from cystic fibrosis children; from tissue; host or cells: sputum from cystic fibrosis children
# T1 sequence (P08246 30-247 limits assumed): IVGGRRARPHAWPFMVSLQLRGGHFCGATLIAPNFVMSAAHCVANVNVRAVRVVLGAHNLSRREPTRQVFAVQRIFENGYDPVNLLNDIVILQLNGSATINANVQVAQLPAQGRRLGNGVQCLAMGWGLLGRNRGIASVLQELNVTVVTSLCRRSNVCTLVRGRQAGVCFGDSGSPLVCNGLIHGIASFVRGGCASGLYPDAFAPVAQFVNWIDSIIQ
# [11] = Resistance to oxidative and proteolytic inactivation; format: physicochemical
# Text: DX-890 is derived from the second Kunitz-type domain of inter-α-inhibitor protein (ITI-D2) and can be produced by fermentation in Pichia pastoris. It includes 56 amino acids, with a predicted MW of 6,237 Daltons.
# [12] = allometric extrapolation from mice and rabbits
# [13] = allometric extrapolation, restated in days
# [14] = 12 healthy volunteers, 14 days single daily dose, nebulization, inhaled mass 3.75 or 15 mg
Substance,"Extrapolated long half life clearance phase [1, 12]","Extrapolated long half life clearance phase [1, 13]",Clearance (%) alpha phase [2],Clearance (%) beta phase [2],T1/2 alpha [2],T1/2 beta [2],Clearance (%) alpha phase [3],Clearance (%) beta phase [3],Clearance (%) gamma phase [3],T1/2 alpha [3],T1/2 beta [3],T1/2 gamma [3],Solubility upon dilution [4],also measured
4 × PEG5-DX-1000: DX-1000 with four attached 5 kDa PEG moieties (4×5 kDa PEG/peptide) (MHSFCAFKAETGPCRARFDRWFFNIFTRQCEEFIYGGCEGNQNRFESLEECKKMCTRD; not fully specified; cysteine pairing not given here; also: four attached 5 kDa PEG moieties (4×5 kDa PEG/peptide)),210 h,about 9 days,38%,62%,0.3 h,12.5 h,34%,32%,34%,1.9 min,3 h,69.3 h,,
5 × PEG5-DX-890: modified DX-890 with five attached 5 kDa PEG moieties (mPEG-SPA) (EACNLPIVRGPCIAFFPRWAFDAVKGKCVLFPYGGCQGNGNKFYSEKECREYCGVP; not fully specified; cysteine pairing not given here; also: five attached 5 kDa PEG moieties (mPEG-SPA)),330 h,about 14 days,33%,67%,1.1 h,20.2 h,28%,34%,38%,2.8 min,4.5 h,97.6 h,,
"DX-88: a kallikrein inhibitor, a Kunitz domain with three available lysines (SEQ ID NO:24) (EAMHSFCAFKADDGPCRAAHPRWFFNIFTRQCEEFIYGGCEGNQNRFESLEECKKMCTRD; Synthetically generated peptide)",,,,,,,,,,,,,relatively stable in terms of solubility upon dilution,
DX-890: 56-amino-acid Kunitz domain (SEQ ID NO:23) derived from ITI-D2; inhibitor of human neutrophil elastase (EACNLPIVRGPCIAFFPRWAFDAVKGKCVLFPYGGCQGNGNKFYSEKECREYCGVP; Synthetically generated peptide),8.4 h,,79%,21%,,,83%,17%,,,,,may precipitate over time,"Clinical or biological toxicity, histopathological lesions [5]: no signs of clinical or biological toxicity; Safety of administration by inhalation [6]: safe; T1/2 alpha [7]: 1.3 min; T1/2 beta [7]: 0.987 h; T1/2 alpha [8]: 1.7 min; T1/2 beta [8]: 3.4 h; Adverse events [9, 14]: no significant adverse event; Tolerability [9, 14]: excellent; DX-890 activity in broncho-alveolar lavages ([9]; volunteer inhaling nebulized DX-890): detected; Effect against lesions induced by hNE of sputum from cystic fibrosis children [10]: protective effect; Resistance to oxidative and proteolytic inactivation [11]: resistant to oxidative and proteolytic inactivation"
"DX-1000: a human plasmin inhibitor, a Kunitz domain with three available lysines (SEQ ID NO:25) (EAMHSFCAFKAETGPCRARFDRWFFNIFTRQCEEFIYGGCEGNQNRFESLEECKKMCTRD; Synthetically generated peptide)",1.7 h,,87%,13%,0.025 h,0.448 h,85%,15%,,0.9 min,1 h,,relatively stable in terms of solubility upon dilution,
